Article PMC11294625, “The kinesin-3 KIF1C undergoes liquid-liquid phase separation for accumulation of specific transcripts at the cell periphery”

T1: KIF1C(CC4+IDR)-mNG (Homo sapiens, UniProt O43896 785-1103)
T1 sequence: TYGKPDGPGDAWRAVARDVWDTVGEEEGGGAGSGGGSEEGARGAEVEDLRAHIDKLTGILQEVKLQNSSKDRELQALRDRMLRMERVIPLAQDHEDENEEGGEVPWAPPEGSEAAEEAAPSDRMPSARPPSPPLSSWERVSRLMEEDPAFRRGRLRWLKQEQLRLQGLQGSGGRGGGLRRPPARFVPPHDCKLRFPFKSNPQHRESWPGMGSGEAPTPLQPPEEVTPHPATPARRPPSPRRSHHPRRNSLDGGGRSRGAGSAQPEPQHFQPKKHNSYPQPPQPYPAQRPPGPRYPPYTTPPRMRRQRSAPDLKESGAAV


Assays:
KIF1C(CC4+IDR)-mNG [1] = target: T1, KIF1C(CC4+IDR)-mNG; experiment: in vitro condensate recruitment (fluorescence microscopy); 15-60 nM RNA, 100 nM protein, 100 mM NaCl; selectively enriched in condensates; 100 nM KIF1C(CC4+IDR)-mNG in 100 mM NaCl buffer, no crowding agent; pH and temperature of the assay not given in the material; conditions: protein: recombinant; tags: C-terminal mNeonGreen; His-SUMO removed by TEV; chain copies: 2; label: 5'-Cy5; single strand
KIF1C(CC4+IDR)-mNG [2] = target: T1, KIF1C(CC4+IDR)-mNG; experiment: in vitro condensate recruitment (fluorescence microscopy); 120-600 nM RNA, 100 nM protein, 100 mM NaCl; enriched (condensates inhibited at uM RNA); 100 nM KIF1C(CC4+IDR)-mNG in 100 mM NaCl buffer, no crowding agent; pH and temperature of the assay not given in the material; conditions: protein: recombinant; tags: C-terminal mNeonGreen; His-SUMO removed by TEV; chain copies: 2; label: 5'-Cy5; single strand

| Binder | binding result (KIF1C(CC4+IDR)-mNG [1]) | binding result (KIF1C(CC4+IDR)-mNG [2]) |
| --- | --- | --- |
| GUGUGUGUGUGU (ssRNA, methylation at each nucleotide (printed mG/mU, probably 2'-O-methyl)) [GU-rich RNA oligo, Cy5-(GU)6] | binds | – |
| AAAAAAAAAAAAA (ssRNA, methylation at each nucleotide (printed mA, probably 2'-O-methyl)) [polyA RNA oligo, Cy5-A13] | – | binds |
